The values that follow are results of earlier work, collected in PMC12086256.

As a reminder, the Kd is a measure of binding affinity in units of concentration.

In the data set the target is VEGFR1 (Homo sapiens) (UniProt P17948).
UniProt P17948, sequence (P17948 27-758): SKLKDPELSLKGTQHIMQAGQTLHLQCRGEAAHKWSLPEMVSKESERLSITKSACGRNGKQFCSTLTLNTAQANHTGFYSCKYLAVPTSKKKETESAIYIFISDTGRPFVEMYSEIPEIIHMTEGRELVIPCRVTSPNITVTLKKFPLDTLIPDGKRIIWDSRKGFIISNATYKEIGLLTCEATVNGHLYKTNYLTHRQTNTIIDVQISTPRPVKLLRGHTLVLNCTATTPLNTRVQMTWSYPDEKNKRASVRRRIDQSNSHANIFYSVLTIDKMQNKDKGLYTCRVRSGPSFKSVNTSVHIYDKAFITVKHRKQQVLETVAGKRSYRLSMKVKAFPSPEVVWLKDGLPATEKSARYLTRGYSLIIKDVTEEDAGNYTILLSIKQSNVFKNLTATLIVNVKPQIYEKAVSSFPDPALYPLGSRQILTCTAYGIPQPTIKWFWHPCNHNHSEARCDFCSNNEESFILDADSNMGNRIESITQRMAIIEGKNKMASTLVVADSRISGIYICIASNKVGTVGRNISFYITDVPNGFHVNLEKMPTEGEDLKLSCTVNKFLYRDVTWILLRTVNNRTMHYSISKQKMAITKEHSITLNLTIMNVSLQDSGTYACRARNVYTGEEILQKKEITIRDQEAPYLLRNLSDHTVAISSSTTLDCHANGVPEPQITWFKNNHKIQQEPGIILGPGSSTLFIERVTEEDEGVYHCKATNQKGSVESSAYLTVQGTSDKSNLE

Regarding VEGF-B167 (from UniProt P49765), the Kd was 2 nM.
